Source: patent publication EP4649952A1 (dated 2025)

T1: KRAS Q61H peptide on HLA-A*01:01 (human)
T1 peptide: ILDTAGHEEY


Target: T1, KRAS Q61H peptide on HLA-A*01:01
Experiment: cytokine release

binding result	Binder
recognises	TCR-1 (TCR, V domains shown) Valpha: KVTQAQTEISVVEKEDVTLDCVYETRDTTYYLFWYKQPPSGELVFLIRRNSFDEQNEISGRYSWNFQKSTSSFNFTITASQVVDSAVYFCALSEANQAGTALIFGKGTTLSVSS Vbeta: EAQVTQNPRYLITVTGKKLTVTCSQNMNHEYMSWYRQDPGLGLRQIYYSMNVEVTDKGDVPEGYKVSRKEKRNFPLILESPSPNQTSLYFCASSRKVPPVYGYTFGSGTRLTVV
recognises	TCR-2 (TCR, V domains shown) Valpha: KVTQAQTEISVVEKEDVTLDCVYETRDTTYYLFWYKQPPSGELVFLIRRNSFDEQNEISGRYSWNFQKSTSSFNFTITASQVVDSAVYFCALSEANQAGTALIFGKGTTLSVSS Vbeta: EAQVTQNPRYLITVTGKKLTVTCSQNMNHEYMSWYRQDPGLGLRQIYYSMNVEVTDKGDVPEGYKVSRKEKRNFPLILESPSPNQTSLYFCASSRRWPPTDTQYFGPGTRLTVL
recognises	TCR-3 (TCR, V domains shown) Valpha: AQKVTQAQTEISVVEKEDVTLDCVYETRDTTYYLFWYKQPPSGELVFLIRRNSFDEQNEISGRYSWNFQKSTSSFNFTITASQVVDSAVYFCALSEAKAAGNKLTFGGGTRVLVKP Vbeta: EAQVTQNPRYLITVTGKKLTVTCSQNMNHEYMSWYRQDPGLGLRQIYYSMNVEVTDKGDVPEGYKVSRKEKRNFPLILESPSPNQTSLYFCASSRKLPPTYGYTFGSGTRLTVV
